The results in this text go back to article PMC4298360.

Experiment [1] addresses human IL-2Rβγ heterodimeric Fc fusion (knobs-into-holes), biotinylated (human) (UniProt P14784). Description: SPR; Biacore T200; biotinylated IL2Rβγ-Fc heterodimer immobilised on streptavidin chips; 2-fold dilution series (1.2–300 nM) of IgG-IL-2 injected 2 min, dissociation up to 10 min; global fit, 1:1 interaction model. In general terms: SPR reads the build-up and loss of mass on a sensor chip optically.

The target in experiment [2] is cynomolgus IL-2Rβγ heterodimeric Fc fusion (knobs-into-holes), biotinylated (cynomolgus) (UniProt Q38J85). The experiment is described as above.
The target in experiment [3] is murine IL-2Rβγ heterodimeric Fc fusion (knobs-into-holes), biotinylated (murine) (UniProt P16297). The description is as above.
Sequence of murine IL-2Rβγ heterodimeric Fc fusion (knobs-into-holes), biotinylated (murine) (P16297 27-240, chain 1 of 2): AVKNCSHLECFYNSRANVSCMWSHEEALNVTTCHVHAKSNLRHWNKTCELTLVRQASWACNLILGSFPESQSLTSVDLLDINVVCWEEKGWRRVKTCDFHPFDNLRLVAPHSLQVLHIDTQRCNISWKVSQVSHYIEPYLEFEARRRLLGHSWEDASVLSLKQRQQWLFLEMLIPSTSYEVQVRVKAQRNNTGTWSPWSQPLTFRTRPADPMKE
Sequence of murine IL-2Rβγ heterodimeric Fc fusion (knobs-into-holes), biotinylated (murine) (P34902 23-263, chain 2 of 2, further chain): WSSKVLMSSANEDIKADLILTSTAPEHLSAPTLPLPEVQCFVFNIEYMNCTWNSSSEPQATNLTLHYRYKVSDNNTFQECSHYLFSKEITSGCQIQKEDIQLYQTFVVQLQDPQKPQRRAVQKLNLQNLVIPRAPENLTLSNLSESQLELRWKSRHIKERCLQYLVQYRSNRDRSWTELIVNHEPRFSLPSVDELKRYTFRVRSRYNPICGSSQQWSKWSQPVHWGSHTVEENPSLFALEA
For experiment [4], the target named is human IL-2Rβγ heterodimeric Fc fusion (knobs-into-holes), biotinylated (human) (UniProt P14784). The experiment can be described thus: SPR; Biacore T200; biotinylated IL2Rβγ-Fc heterodimer immobilised on streptavidin chips; 2-fold dilution series (1.2–300 nM) of IgG-(IL-2)2 injected 2 min, dissociation up to 10 min; global fit, 1:1 interaction model despite bivalent binding: apparent KD.
Sequence of human IL-2Rβγ heterodimeric Fc fusion (knobs-into-holes), biotinylated (human) (P14784 27-240, chain 1 of 2): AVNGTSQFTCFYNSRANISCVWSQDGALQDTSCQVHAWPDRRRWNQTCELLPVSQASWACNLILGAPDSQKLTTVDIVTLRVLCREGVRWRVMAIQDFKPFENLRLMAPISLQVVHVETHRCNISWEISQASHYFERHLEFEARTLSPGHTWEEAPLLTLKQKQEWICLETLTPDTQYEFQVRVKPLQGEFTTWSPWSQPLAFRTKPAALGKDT
Sequence of human IL-2Rβγ heterodimeric Fc fusion (knobs-into-holes), biotinylated (human) (P31785 23-262, chain 2 of 2, further chain): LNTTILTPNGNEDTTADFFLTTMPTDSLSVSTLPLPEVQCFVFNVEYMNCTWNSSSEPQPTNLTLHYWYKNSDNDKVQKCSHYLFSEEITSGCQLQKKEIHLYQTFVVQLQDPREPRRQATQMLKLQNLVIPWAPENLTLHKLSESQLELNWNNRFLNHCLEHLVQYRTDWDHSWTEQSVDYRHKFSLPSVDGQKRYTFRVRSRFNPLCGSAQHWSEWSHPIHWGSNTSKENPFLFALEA

Experiment [5] concerns the target cynomolgus IL-2Rβγ heterodimeric Fc fusion (knobs-into-holes), biotinylated (cynomolgus) (UniProt Q38J85). The description is as above.
For experiment [6], the target named is murine IL-2Rβγ heterodimeric Fc fusion (knobs-into-holes), biotinylated (murine) (UniProt P16297). The description is as above.
In experiment [7] the target is human IL-2Rβγ heterodimeric Fc fusion (knobs-into-holes), biotinylated (human) (UniProt P14784).
Experiment [8] deals with cynomolgus IL-2Rβγ heterodimeric Fc fusion (knobs-into-holes), biotinylated (cynomolgus) (UniProt Q38J85).

Sequence of IgG-IL-2 (monovalent fusion of wild-type human IL-2 to a non-targeted, effector-silent human IgG1) (P60568 21-153 limits assumed): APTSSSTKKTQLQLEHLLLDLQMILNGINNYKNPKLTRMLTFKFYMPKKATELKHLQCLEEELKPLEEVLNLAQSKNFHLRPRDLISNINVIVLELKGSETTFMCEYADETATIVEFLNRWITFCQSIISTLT
Sequence of IgG-(IL-2)2 (bivalent fusion of two wild-type human IL-2 to a non-targeted, effector-silent human IgG1) (P60568 21-153 limits assumed): as above

For “IgG-IL-2 (monovalent fusion of wild-type human IL-2 to a non-targeted, effector-silent human IgG1) (from UniProt P60568 21-153)”, the Kd in experiment [1] was 0.04 nM; in experiment [2], 0.18 nM; in experiment [3], 0.75 nM.

With “IgG-(IL-2)2 (bivalent fusion of two wild-type human IL-2 to a non-targeted, effector-silent human IgG1) (from UniProt P60568 21-153)”, the Kd in experiment [4] amounted to 3 pM; in experiment [5], 0.04 nM; in experiment [6], 0.04 nM. Further, in experiment [7], the ED50 of pSTAT5a induction in human Tregs in whole blood (30 min, 37 °C); the receptor meant is the IL-2 receptor on the cells is 0.3 pM. In experiment [8], this substance had an ED50 of pSTAT5a induction in cynomolgus Tregs in whole blood (30 min, 37 °C); the receptor meant is the IL-2 receptor on the cells of 0.1 pM.
